Laboratory results: patent US20110129473A1 (LABORATORIOS SILANES S A DE C V, published 2011)

Target: T1, recombinant human cytokine TNFα (human, UniProt P01375 77-233)
T1 construct: Recombinant human TNFα used for immunisation, panning and ELISA; also called human TNFα; rhTNF-α
Test: phage display selection and ELISA on coated TNFα
Procedure: Phage selection rounds, amplification and recovery: There were performed 4 rounds of phage selection with TNFα 1 μg in PBS in an ELISA plate, sealed and incubating over night at 4° C., the cytokine is eliminated and blocking with 150 μl of PBS-BSA (3%), sealed and incubated 1 hr at 37° C.; discarding and adding 50 μl of phage-antibodies for each well, sealed and incubated with TBS-Tween 20 (0.05%) 150 for each well using the pipette to agitate. The solution is discarded and the phage-antibodies specific for TNFα are harvested after adding 50 μl per well of TBS-Trypsin [10 mg/ml]. The plate is sealed and incubated during 30 minutes, 37° C. The phage-antibodies are recovered and used to infect a culture of E. coli ER2537 (2 ml) electro-compentents (DO₆₀₀=1), during 15 minutes at room temperature. The selected phage-antibodies are amplified using serial dilutions incubating the transformants in SB media with carbencillin and helper phage VCSM13 with kanamycin. The phage-antibodies were recovered from the infected cultures of ER2537 cells by centrifugations using first PEG-8000 4% and NaCl 3, and PBS_BSA 1% (2 ml) filtering the supernatant with a 0.22 μm membrane, using 50 μl para to be selected according to the TNFα binding. […]

T1 sequence (P01375 77-233 limits assumed): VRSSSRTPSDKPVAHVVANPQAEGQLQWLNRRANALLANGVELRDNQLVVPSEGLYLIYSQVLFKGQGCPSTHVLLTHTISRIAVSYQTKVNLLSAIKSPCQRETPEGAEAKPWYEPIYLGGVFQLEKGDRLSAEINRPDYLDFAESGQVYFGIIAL

binding result: binds
B1: vNAR clone 65 (anti-TNFα vNAR from Heterodontus francisci) (other)
chain: ASLDQTPRTATRETGESLTVNCVLVDANYGLYNTSWYRNNPGSTDREHITIGGRYVESVNKGAKSFSLQIKDMTVEDSGTYYCKARESDYNRVGIRDYKDYDGAGTVLTVN
notes: Shark IgNAR single variable domain (vNAR), expressed from pCOMb3X in E. coli; also called TNF65
